Biological target: the molecule itself
Test: SEC; oligomeric fractions, 15-20 µM protein, incubated 10 min at room temperature in buffer only (20 mM PIPES, 0.8 mM MgCl2, pH 7.0), then passed again through Superdex 200 10/300 GL

B1: FAD synthetase from Corynebacterium ammoniagenes, wild type (enzyme)
chain: MDIWYGTAAVPKDLDNSAVTIGVFDGVHRGHQKLINATVEKAREVGAKAIMVTFDPHPVSVFLPRRAPLGITTLAERFALAESFGIDGVLVIDFTRELSGTSPEKYVEFLLEDTLHASHVVVGANFTFGENAAGTADSLRQICQSRLTVDVIDLLDDEGVRISSTTVREFLSEGDVARANWALGRHFYVTGPVVRGAGRGGKELGFPTANQYFHDTVALPADGVYAGWLTILPTEAPVSGNMEPEVAYAAAISVGTNPTFGDEQRSVESFVLDRDADLYGHDVKVEFVDHVRAMEKFDSVEQLLEVMAKDVQKTRTLLAQDVQAHKMAPETYFLQAES
notes: Bifunctional FAD synthetase (N-terminal FMNAT module, C-terminal RFK module) from Corynebacterium ammoniagenes, CaFADS; Plasmid pET28a-CaFADS; The size of the oligomers was not resolved by gel filtration; also called CaFADS; WT CaFADS; source: E. coli BL21(DE3), purified (20% ammonium sulfate fractionation, phenyl-sepharose, DEAE-cellulose)
In the case of B1, the monomer/oligomer ratio is reported as about 0.8.
